B1: v2 (dsDNA)
DNA 1: ATAACTGGGAGGCGACGCTGGCG
DNA 2: TCGCCAGCGTCGCCTCCCAGTTA
B2: v1 (dsDNA)
DNA 1: AGGCACGCGTCCAGGCAACCGGG
DNA 2: TCCCGGTTGCCTGGACGCGTGCC
B3: S0_x2 (dsDNA)
DNA 1: AGCGTCGAGACGCGCGTCGAGACGC
DNA 2: TGCGTCTCGACGCGCGTCTCGACGC
B4: N25 (dsDNA)
DNA 1: TATACAAACCCCTTACCAATATCATA
DNA 2: ATATGATATTGGTAAGGGGTTTGTAT
B5: PRDIII-I (dsDNA)
DNA 1: GAGGAAAACTGAAAGGGAACTGAAA
DNA 2: TTTCAGTTCCCTTTCAGTTTTCCTC
B6: dsS0mm (dsDNA)
DNA 1: GCGTCGAGACGC
DNA 2: GCGTCGAGACGC

Biological target: T1, vIRF-1 DBD (vIRF-1 88-196) (Kaposi's sarcoma-associated herpesvirus …, UniProt F5HF68 88-196)
Assay: thermal stability shift assay

T1 sequence (F5HF68 88-196): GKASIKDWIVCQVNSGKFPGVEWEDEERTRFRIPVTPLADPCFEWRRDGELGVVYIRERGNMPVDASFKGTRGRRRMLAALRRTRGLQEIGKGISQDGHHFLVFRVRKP

Binder | binding result
B1 | binds
B2 | binds
B3 | binds
B4 | binds
B5 | binds

Biological target: T1, vIRF-1 DBD (vIRF-1 88-196)
Assay: X-ray crystallography

Binder | binding result
B6 | binds
